Reference: US11466255B2, “Methods and compositions for converting non-endocrine pancreatic tissue into insulin-producing cells” (UNIVERSITY OF MIAMI, priority 2015, dated 2022)

Columns and labels:
[1] = system: hNEPT; test: Glucose-stimulated insulin secretion (GSIS) and perifusion; format: cell-based, human; conditions: day 12; 2.5 mM vs 20 mM glucose
Procedure: Glucose-stimulated insulin release (GSIR) and total insulin determination: GSIR was performed in six-well plate cultures. BMP-7-treated samples and untreated controls were washed twice with DMEM medium containing 2.5 mM glucose (Low glucose medium or L-medium). Upon addition of 2 ml of the same medium, the cells were cultured for 1 h at 37° C. to bring their insulin secretion to baseline. After 2 more washes, 1 ml of L-medium was added and the cells were returned to the incubator for 1 h. At the end of incubation period, the medium was collected and the cells exposed for 1 h to 1 ml of 20 mM glucose DMEM medium (high glucose medium or H-medium). After the collection of the H-medium supernatant, the cells were washed three times with L-medium and cultured again in low glucose conditions for 1 h. As before, supernatant was collected at the end of the incubation period. The second low glucose incubation is necessary to confirm that the cells are responding to glucose concentration changes in a physiological manner and not dumping insulin. […] The lysates and the supernatants from GSIR test were evaluated with ELISA for C-peptide content (Mercodia, Uppsala, Sweden) following manufacturer's instructions. […]
Perifusion studies: Perifusion was performed as described58. […] Insulin release was determined with the Human Insulin ELISA Mercodia Kit (Uppsala, Sweden) following the manufacturer's instructions.

[2] = system: P2RY1+/ALK3+ sorted cells; test: Sorted P2RY1+/ALK3+ cells treated with BMP-7 with or without dorsomorphin; format: cell-based, human; conditions: 100 ng/μl BMP-7, qRT-PCR and IF
Procedure: A 2-color FACS selection for dissociated hNEPT (as well as collagenase-digested MPDs) that are positive for the surface markers P2RY1 and ALK3 (Life Span Biosciences) is conducted. This approach has already been successfully tested, as is shown herein. Sorted cells are treated with 100 ng/μl of BMP-7 with or without dorsomorphin, which inhibits BMP signaling. Additional aliquots receive no treatment. […] This is determined by qRT-PCR and IF as above, as well as ultrastructural analyses by TEM.

[3] = system: hNEPT; test: C-peptide content (ELISA, normalised to DNA) of hNEPT; format: cell-based, human; conditions: for induction of C-peptide compared to t=0: n=4, P=0.06
Procedure: hNEPT culture: Human islets were isolated at the DRI's cGMP facility following methods already described54, and hNEPT samples (2-4 ml) were obtained as an isolation byproduct. The cells were washed and seeded on tissue culture-treated plates in FBS- and trypsin inhibitor-supplemented RPMI 1640 medium (Gibco-Life Technologies, Grand Island, N.Y.). After 48 h, floating cells were removed with fresh medium replacement. The following day, cultures were either treated with 100 ng/ml BMP-7 (ProSpec-Tany TechnoGene; Ness Ziona, Israel) or remained in the starting medium as controls. Cells were allowed to grow 4-5 days and then the serum-containing medium was replaced by serum-free Advanced RPMI 1640 (Gibco-Life Technologies, Grand Island, N.Y.). Four to five days later the cells were either subjected to static incubation to evaluate their ability to respond to changing glucose concentration or collected for further assessments (such as C-peptide content, immunohistochemistry or cellular composition) or transplantation.
Glucose-stimulated insulin release (GSIR) and total insulin determination: GSIR was performed in six-well plate cultures. BMP-7-treated samples and untreated controls were washed twice with DMEM medium containing 2.5 mM glucose (Low glucose medium or L-medium). Upon addition of 2 ml of the same medium, the cells were cultured for 1 h at 37° C. to bring their insulin secretion to baseline. After 2 more washes, 1 ml of L-medium was added and the cells were returned to the incubator for 1 h. At the end of incubation period, the medium was collected and the cells exposed for 1 h to 1 ml of 20 mM glucose DMEM medium (high glucose medium or H-medium). After the collection of the H-medium supernatant, the cells were washed three times with L-medium and cultured again in low glucose conditions for 1 h. As before, supernatant was collected at the end of the incubation period. The second low glucose incubation is necessary to confirm that the cells are responding to glucose concentration changes in a physiological manner and not dumping insulin. After the last incubation, the cells were collected, washed in PBS and lysed with 1 ml of T-Per (Thermo Scientific, Rockford, Ill.). The lysates and the supernatants from GSIR test were evaluated with ELISA for C-peptide content (Mercodia, Uppsala, Sweden) following manufacturer's instructions. DNA content of the lysates was used to normalize the results (Pico-Green dsDNA Assay Kit, Life Technologies-Molecular Probes, Grand Island, N.Y.).

[4] = system: stz-treated diabetic mice; test: Systemic BMP-7 in stz-treated diabetic CD1 mice; format: in vivo, mouse; conditions: BMP-7 500 μg/kg IP daily for 30 days, stz 200 mg/kg
Procedure: Systemic BMP-7 (500 μg/kg) is administered to CD1 mice by means of intraperitoneal (IP) injection daily for 30 days. This dose is within the range reported for rodents in other BMP administration settings^18,67-69, and is refined in subsequent preclinical experiments. Acute diabetes is induced by a single injection of stz (200 mg/kg) prior to BMP-7 treatment. Controls receive saline by the same route. […] Similar doses^18 are effective at reversing kidney fibrosis. Ten animals/group are used. Half of the animals in each group receive BrdU in the water. Mice are euthanized 30 days after initiation of treatment, or earlier if diabetes reversal is observed. Glycemia is monitored daily at the same time, right before injection. IPGTTs and determination of PI/I ratios is done at 14 and 30 days. Upon euthanasia, the pancreas and other organs are harvested and analyzed by a pathologist to establish if there are tumorigenic or otherwise toxic effects associated with the treatment. The pancreas is also studied by IF in search of potential β-cell/endocrine cell neogenesis and/or signs of β-cell/endocrine cell proliferation (BrdU-treated animals) when compared to saline-treated controls. […] Relative quantification of β-cell/endocrine cell neogenesis are done using normalized total insulin quantification and the imaging techniques described in Example 4 and^17. […]

B1: BMP-7: 35 kDa homodimeric protein of the TGF-β superfamily; FDA-approved agent; human mature chain SEQ ID NO:1/2 (protein, listed as Homo sapiens)
chain: IRSTGSKQRSQNRSKTPKNQEALRMANVAENSSSDQRQACKKHELYVSFRDLGWQDWIIAPEGYAAYYCEGECAFPLNSYMNATNHAIVQTLVHFINPETVPKPCCAPTQLNAISVLYFDDSSNVILKKYRNMVVRACGCH
modifications: homodimer; human mature chain of BMP-7 (NCBI Reference Sequence NM_001719.2) comprising peptide from 293-431
[1]
  glucose responsiveness of induced clusters: glucose responsive
[2]
  expression of endocrine differentiation genes vs. control or BMP-7+dorsomorphin: induces the expression of endocrine differentiation genes
[3]; BMP-4 vs BMP-7 comparison, n=6, P=0.43
  C-peptide production induction vs. t=0: 156±32 fold
[3]; BMP-7 alone, dorsomorphin experiment
  induction of C-peptide compared to t=0: 314.1±152 fold
[3]; BMP-7 in the presence of dorsomorphin (DM)
  induction of C-peptide compared to t=0: 107.8±34.3 fold
[3]; THR-123 vs BMP-7 comparison, n=4, P=0.25
  C-peptide induction vs. t=0: 261±102 fold
[3]; day 12 vs day 0, 8 independent hNEPT preparations
  average increase in total C-peptide vs. the initial material: two orders of magnitude
[4]
  glycemia vs. controls: glycemic improvements
